B1: Mothers against decapentaplegic homolog 4 (Homo sapiens), Q13485 (parent)
chain: MDNMSITNTPTSNDACLSIVHSLMCHRQGGESETFAKRAIESLVKKLKEKKDELDSLITAITTNGAHPSKCVTIQRTLDGRLQVAGRKGFPHVIYARLWRWPDLHKNELKHVKYCQYAFDLKCDSVCVNPYHYERVVSPGIDLSGLTLQSNAPSSMMVKDEYVHDFEGQPSLSTEGHSIQTIQHPPSNRASTETYSTPALLAPSESNATSTANFPNIPVASTSQPASILGGSHSEGLLQIASGPQPGQQQNGFTGQPATYHHNSTTTWTGSRTAPYTPNLPHHQNGHLQHHPPMPPHPGHYWPVHNELAFQPPISNHPAPEYWCSIAYFEMDVQVGETFKVPSSCPIVTVDGYVDPSGGDRFCLGQLSNVHRTEAIERARLHIGKGVQLECKGEGDVWVRCLSDHAVFVQSYYLDREAGRAPGDAVHKIYPSAYIKVFDLRQCHRQMQQQAATAQAAAAAQAAAVAGNIPGPGSVGGIAPAISLSAAAGIGVDDLRRLCILRMSFVKGWGPDYPRQSIKETPCWIEIHLHRALQLLDEVLHTMPIADPQPLD

Variants of: B1
Details: with maga6_human MAGEA6, P43360

effect of a mutation on the interaction	Variant
with no effect	R361H

Variants of: B1
Details: with mp2k7_human MAP2K7, O14733

effect of a mutation on the interaction	Variant
with no effect	R361H

Variants of: B1
Details: with m3k1_human MAP3K1, Q13233
Sequence of m3k1_human MAP3K1, Q13233 (Q13233 whole entry): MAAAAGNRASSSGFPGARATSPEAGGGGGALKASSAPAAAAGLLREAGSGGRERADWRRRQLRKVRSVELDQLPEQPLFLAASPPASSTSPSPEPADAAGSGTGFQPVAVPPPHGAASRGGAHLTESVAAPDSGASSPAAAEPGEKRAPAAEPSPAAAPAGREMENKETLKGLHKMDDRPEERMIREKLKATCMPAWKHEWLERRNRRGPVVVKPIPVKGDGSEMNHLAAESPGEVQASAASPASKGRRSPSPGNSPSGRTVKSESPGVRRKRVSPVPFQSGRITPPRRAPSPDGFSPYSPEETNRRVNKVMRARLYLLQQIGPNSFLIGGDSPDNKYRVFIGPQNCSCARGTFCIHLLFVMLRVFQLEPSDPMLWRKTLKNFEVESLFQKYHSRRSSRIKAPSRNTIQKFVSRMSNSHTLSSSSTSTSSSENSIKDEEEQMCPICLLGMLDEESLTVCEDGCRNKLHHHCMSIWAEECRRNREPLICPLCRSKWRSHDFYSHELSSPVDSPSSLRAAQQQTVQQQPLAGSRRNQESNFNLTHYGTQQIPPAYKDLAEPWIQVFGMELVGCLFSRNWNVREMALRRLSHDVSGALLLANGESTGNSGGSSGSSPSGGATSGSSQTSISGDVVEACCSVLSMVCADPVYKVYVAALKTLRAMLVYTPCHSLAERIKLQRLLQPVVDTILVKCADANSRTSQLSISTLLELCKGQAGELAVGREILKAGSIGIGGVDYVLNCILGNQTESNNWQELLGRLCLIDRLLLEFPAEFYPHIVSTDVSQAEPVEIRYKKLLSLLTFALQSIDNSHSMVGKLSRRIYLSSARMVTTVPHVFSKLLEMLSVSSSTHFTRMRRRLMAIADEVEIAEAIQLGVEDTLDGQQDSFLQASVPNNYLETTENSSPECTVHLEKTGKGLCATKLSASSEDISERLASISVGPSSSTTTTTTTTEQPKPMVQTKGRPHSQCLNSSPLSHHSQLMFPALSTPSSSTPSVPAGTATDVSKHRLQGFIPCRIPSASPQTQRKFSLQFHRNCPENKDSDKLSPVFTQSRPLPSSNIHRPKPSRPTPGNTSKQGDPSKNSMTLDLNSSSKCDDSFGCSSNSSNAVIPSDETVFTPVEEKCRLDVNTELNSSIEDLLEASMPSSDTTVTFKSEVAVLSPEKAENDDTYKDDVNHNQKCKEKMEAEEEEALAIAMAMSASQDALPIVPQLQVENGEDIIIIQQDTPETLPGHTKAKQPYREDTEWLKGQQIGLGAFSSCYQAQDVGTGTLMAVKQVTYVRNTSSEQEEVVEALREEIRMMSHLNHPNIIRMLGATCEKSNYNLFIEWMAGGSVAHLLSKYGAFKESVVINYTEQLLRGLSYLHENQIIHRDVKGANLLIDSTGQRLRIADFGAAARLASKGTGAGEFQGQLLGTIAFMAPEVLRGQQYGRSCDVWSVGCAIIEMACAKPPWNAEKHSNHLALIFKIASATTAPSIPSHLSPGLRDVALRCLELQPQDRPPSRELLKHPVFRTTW

effect of a mutation on the interaction	Variant
with no effect	R361H

Variants of: B1
Details: with mk10_human MAPK10, P53779

effect of a mutation on the interaction	Variant
with no effect	R361H

Variants of: B1
Details: with mk14_human MAPK14, Q16539

effect of a mutation on the interaction	Variant
with no effect	R361H

Variants of: B1
Details: with mk03_human MAPK3, P27361

effect of a mutation on the interaction	Variant
with no effect	R361H

Variants of: B1
Details: with mk04_human MAPK4, P31152

effect of a mutation on the interaction	Variant
with no effect	R361H

Variants of: B1
Details: with mk06_human MAPK6, Q16659
Sequence of mk06_human MAPK6, Q16659 (Q16659 whole entry): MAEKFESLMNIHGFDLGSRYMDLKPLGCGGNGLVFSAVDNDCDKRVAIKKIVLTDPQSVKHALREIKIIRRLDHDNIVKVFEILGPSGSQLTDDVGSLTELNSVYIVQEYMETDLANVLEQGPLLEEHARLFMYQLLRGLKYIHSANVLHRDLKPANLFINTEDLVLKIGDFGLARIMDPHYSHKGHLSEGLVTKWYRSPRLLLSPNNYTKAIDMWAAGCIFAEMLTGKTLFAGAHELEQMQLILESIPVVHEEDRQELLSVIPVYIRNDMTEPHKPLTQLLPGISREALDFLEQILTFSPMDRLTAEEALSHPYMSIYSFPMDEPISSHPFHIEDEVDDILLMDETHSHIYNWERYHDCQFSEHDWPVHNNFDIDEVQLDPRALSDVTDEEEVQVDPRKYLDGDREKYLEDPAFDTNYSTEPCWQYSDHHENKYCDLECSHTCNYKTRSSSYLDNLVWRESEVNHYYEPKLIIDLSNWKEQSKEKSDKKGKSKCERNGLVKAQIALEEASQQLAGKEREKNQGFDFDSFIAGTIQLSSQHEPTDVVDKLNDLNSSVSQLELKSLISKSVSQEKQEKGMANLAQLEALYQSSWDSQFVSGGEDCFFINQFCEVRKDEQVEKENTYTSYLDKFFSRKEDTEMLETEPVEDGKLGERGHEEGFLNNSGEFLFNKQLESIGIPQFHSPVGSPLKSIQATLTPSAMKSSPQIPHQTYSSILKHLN

effect of a mutation on the interaction	Variant
with no effect	R361H

Variants of: B1
Details: with mk07_human MAPK7, Q13164
Sequence of mk07_human MAPK7, Q13164 (Q13164 whole entry, looked up): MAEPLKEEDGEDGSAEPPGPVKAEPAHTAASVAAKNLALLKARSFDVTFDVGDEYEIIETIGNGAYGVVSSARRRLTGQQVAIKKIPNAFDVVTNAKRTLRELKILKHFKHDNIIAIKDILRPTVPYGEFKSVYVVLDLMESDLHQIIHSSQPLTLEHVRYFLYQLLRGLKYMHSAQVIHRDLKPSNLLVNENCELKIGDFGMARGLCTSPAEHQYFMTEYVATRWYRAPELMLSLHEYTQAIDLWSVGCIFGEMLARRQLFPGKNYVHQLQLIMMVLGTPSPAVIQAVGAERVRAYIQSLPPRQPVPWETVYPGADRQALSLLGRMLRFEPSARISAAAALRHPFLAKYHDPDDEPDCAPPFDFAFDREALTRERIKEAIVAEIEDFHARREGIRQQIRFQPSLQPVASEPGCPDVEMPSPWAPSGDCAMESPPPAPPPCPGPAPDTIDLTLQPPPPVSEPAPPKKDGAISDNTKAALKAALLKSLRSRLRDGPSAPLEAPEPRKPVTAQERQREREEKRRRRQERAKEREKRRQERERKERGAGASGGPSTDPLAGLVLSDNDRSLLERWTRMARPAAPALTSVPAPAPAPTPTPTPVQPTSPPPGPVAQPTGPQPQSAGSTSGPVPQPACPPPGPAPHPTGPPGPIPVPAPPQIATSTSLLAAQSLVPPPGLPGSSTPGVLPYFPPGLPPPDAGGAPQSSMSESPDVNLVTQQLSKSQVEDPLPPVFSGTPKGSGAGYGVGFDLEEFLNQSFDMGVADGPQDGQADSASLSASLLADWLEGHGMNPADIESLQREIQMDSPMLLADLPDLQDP

effect of a mutation on the interaction	Variant
with no effect	R361H

Variants of: B1
Details: with mcl1_human MCL1, Q07820

effect of a mutation on the interaction	Variant
with no effect	R361H

Variants of: B1
Details: with myc_human MYC

effect of a mutation on the interaction	Variant
with no effect	R361H

Variants of: B1
Details: with nf1_human NF1, P21359

effect of a mutation on the interaction	Variant
with no effect	R361H

Variants of: B1
Details: with merl_human NF2, P35240

effect of a mutation on the interaction	Variant
with no effect	R361H

Variants of: B1
Details: with nfic_human NFIC

effect of a mutation on the interaction	Variant
with no effect	R361H

Variants of: B1
Details: with nsd3_human NSD3, Q9BZ95

effect of a mutation on the interaction	Variant
with no effect	R361H

Variants of: B1
Details: with pak3_human PAK3, O75914
Sequence of pak3_human PAK3, O75914 (O75914 whole entry, looked up): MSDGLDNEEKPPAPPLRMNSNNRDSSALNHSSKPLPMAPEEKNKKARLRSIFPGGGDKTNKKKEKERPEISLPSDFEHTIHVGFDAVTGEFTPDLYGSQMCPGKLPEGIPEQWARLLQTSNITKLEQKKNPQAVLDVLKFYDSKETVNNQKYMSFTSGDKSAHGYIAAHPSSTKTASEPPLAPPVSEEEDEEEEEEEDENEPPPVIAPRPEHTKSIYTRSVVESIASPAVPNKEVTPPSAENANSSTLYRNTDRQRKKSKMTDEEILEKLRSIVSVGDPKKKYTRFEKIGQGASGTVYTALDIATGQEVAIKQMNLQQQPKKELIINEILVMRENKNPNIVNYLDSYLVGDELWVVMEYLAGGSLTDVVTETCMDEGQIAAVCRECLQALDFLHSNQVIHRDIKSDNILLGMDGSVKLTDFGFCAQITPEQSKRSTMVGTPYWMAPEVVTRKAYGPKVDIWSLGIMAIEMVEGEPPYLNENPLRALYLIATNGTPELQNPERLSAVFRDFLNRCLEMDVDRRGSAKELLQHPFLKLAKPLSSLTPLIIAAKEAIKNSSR

effect of a mutation on the interaction	Variant
with no effect	R361H

Variants of: B1
Details: with pax5_human PAX5, Q02548

effect of a mutation on the interaction	Variant
with no effect	R361H

Variants of: B1
Details: with pax9_human PAX9, P55771

effect of a mutation on the interaction	Variant
with no effect	R361H

Variants of: B1
Details: with pcbp1_human PCBP1, Q15365

effect of a mutation on the interaction	Variant
with no effect	R361H

Variants of: B1
Details: with pgfra_human PDGFRA

effect of a mutation on the interaction	Variant
with no effect	R361H

Variants of: B1
Details: with pgfrb_human PDGFRB

effect of a mutation on the interaction	Variant
with no effect	R361H

Variants of: B1
Details: with pdk1_human PDK1, Q15118
Sequence of pdk1_human PDK1, Q15118 (Q15118 whole entry, looked up): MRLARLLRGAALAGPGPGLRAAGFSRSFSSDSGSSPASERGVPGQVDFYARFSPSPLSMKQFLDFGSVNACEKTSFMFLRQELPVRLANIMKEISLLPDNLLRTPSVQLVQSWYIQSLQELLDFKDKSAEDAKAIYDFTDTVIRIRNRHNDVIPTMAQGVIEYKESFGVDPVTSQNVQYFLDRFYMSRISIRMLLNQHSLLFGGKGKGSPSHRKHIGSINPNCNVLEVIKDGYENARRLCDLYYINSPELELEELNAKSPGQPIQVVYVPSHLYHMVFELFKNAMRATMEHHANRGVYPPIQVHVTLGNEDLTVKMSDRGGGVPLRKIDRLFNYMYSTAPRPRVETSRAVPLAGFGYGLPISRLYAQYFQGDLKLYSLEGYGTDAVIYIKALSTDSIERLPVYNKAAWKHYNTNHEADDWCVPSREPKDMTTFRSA

effect of a mutation on the interaction	Variant
with no effect	R361H

Variants of: B1
Details: with PIK3C2B

effect of a mutation on the interaction	Variant
with no effect	R361H

Variants of: B1
Details: with pk3c3_human PIK3C3, Q8NEB9
Sequence of pk3c3_human PIK3C3, Q8NEB9 (Q8NEB9 whole entry): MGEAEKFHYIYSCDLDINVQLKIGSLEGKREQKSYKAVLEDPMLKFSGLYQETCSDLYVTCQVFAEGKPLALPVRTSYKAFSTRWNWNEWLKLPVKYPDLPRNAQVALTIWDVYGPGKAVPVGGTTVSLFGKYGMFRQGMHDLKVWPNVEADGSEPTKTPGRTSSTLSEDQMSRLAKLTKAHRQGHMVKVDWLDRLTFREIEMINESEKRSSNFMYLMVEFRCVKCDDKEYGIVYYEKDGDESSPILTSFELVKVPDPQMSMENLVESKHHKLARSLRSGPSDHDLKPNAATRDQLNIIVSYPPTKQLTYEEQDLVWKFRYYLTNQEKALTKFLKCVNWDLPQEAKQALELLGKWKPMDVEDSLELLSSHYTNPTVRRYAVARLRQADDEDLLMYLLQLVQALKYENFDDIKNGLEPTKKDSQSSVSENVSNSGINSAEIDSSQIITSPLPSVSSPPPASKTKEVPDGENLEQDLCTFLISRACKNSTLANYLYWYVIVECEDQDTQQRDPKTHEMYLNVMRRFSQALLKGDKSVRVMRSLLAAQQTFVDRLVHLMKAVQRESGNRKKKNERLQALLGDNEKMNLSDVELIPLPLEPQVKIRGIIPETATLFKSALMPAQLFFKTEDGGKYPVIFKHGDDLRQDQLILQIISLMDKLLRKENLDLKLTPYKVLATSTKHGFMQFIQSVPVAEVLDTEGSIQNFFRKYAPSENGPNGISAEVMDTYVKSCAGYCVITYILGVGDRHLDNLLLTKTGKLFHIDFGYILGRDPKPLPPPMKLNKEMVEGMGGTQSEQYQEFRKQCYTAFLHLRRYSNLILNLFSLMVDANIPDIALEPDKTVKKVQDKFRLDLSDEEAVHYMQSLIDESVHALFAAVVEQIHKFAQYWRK

effect of a mutation on the interaction	Variant
with no effect	R361H

Variants of: B1
Details: with pk3ca_human PIK3CA

effect of a mutation on the interaction	Variant
with no effect	R361H

Variants of: B1
Details: with pk3cg_human PIK3CG

effect of a mutation on the interaction	Variant
with no effect	R361H

Variants of: B1
Details: with p85a_human PIK3R1, P27986

effect of a mutation on the interaction	Variant
with no effect	R361H

Variants of: B1
Details: with p85b_human PIK3R2, O00459

effect of a mutation on the interaction	Variant
with no effect	R361H

Variants of: B1
Details: with dpod1_human POLD1, P28340

effect of a mutation on the interaction	Variant
with no effect	R361H

Variants of: B1
Details: with dpoe1_human POLE

effect of a mutation on the interaction	Variant
with no effect	R361H

Variants of: B1
Details: with lipa1_human PPFIA1, Q13136

effect of a mutation on the interaction	Variant
with no effect	R361H

Variants of: B1
Details: with 2aaa_human PPP2R1A

effect of a mutation on the interaction	Variant
with no effect	R361H

Variants of: B1
Details: with prdm1_human PRDM1, O75626

effect of a mutation on the interaction	Variant
with no effect	R361H

Variants of: B1
Details: with aapk2_human PRKAA2, P54646

effect of a mutation on the interaction	Variant
with no effect	R361H

Variants of: B1
Details: with prss8_human PRSS8, Q16651

effect of a mutation on the interaction	Variant
with no effect	R361H

Variants of: B1
Details: with ptk6_human PTK6, Q13882

effect of a mutation on the interaction	Variant
with no effect	R361H

Variants of: B1
Details: with tf65_human RELA

effect of a mutation on the interaction	Variant
with no effect	R361H

Variants of: B1
Details: with rnf43_human RNF43, Q68DV7

effect of a mutation on the interaction	Variant
with no effect	R361H

Variants of: B1
Details: with ros1_human ROS1, P08922

effect of a mutation on the interaction	Variant
with no effect	R361H

Variants of: B1
Details: with rl5_human RPL5, P46777

effect of a mutation on the interaction	Variant
with no effect	R361H

Variants of: B1
Details: with runx1_human RUNX1, Q01196

effect of a mutation on the interaction	Variant
with no effect	R361H

— IntAct's records for PubMed 35512704
